From patent publication US20210301005A1 come the findings set out here.

Assay [1] addresses human TGFβ3, mature dimeric form (human) (UniProt P10600).
Assay [2] addresses human TGFβ2, mature receptor-binding domain (human).
The target of assay [3] is human TGFβ1, mature receptor-binding domain (human) (UniProt P01137).
Assay [4] shares this target. The source holds these as a separate data set.
In assay [5] the target is human TGFβ2, mature receptor-binding domain (human). The source holds these as a separate data set.
The target of assay [6] is human TGFβ3, mature dimeric form (human) (UniProt P10600). This is another data set of the same source.
Chain of human TGFβ3, mature dimeric form (human) (P10600 301-412): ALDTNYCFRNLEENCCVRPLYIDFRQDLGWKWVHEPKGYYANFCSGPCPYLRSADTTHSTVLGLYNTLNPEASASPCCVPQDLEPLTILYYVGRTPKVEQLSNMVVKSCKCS

Chain of Fc-LAP1 (P01137 30-278 limits assumed): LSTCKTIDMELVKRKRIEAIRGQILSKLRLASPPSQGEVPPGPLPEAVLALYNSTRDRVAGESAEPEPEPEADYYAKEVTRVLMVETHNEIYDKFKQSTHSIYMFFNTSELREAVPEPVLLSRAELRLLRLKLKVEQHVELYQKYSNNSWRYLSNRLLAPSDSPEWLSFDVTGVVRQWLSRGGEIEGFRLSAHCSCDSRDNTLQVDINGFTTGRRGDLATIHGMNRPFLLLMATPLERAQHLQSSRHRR
Chain of human TGFβ1, mature receptor-binding domain (human) (P01137 279-390 limits assumed): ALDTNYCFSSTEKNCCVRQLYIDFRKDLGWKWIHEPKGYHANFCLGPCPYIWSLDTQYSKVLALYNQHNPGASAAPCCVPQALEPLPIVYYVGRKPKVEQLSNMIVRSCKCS
Chain of human TGFβ2, mature receptor-binding domain (human) (P09858 303-414 limits assumed): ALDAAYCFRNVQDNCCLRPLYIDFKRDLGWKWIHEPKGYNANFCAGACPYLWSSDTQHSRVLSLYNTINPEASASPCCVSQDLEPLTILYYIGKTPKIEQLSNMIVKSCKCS

With “Fc-LAP1 (from UniProt P01137 30-278) (Fc fusion)”, the values for the IC50 in assay [1], in assay [2] and in assay [3] were 43 nM, 64 nM and 96 nM, respectively. For the same substance, the IC50 (read off the curve) in assay [4] was 0.1 nM; in assay [5] it was 0.07 nM; in assay [6], 0.04 nM.
